Columns and labels:
[1] = Optical properties: excitation/emission maxima and absolute fluorescence quantum yield; assay type: physicochemical
Description: A dual-beam UV-VIS spectrophotometer (Lambda 40, Perkin Elmer) was used to determine the absorbance (Abs) of the compounds of the invention. Emission/excitation (Em/Ex) spectra and absolute fluorescence quantum yield (ϕ) measurements were carried out on a spectrofluorometer (FluoroLog-3 1IHR-320, Horiba Jobin Yvon) equipped with an F-3018 integrating sphere accessory. The measurements were performed using an excitation wavelength at maximum absorbance of different dyes, and the sample was excited with a 450 W Xenon Light Source. Detection was performed by photomultiplier tubes (PMT-NIR) cooled detector or by TBX-04 detector. Dye solutions were carefully prepared to have an absorbance lower than 0.1 (optical densities) to minimize re-absorption phenomena.
The compounds of the invention have been characterized in terms of their optical properties in vitro in aqueous medium (i.e., water/PBS pH 7.4) and in a clinical chemistry control serum (Seronorm, Sero SA), mimicking the chemical composition and optical properties of human serum. All dye or dye-conjugate solutions were freshly prepared. ICG and S0456 were used as commercial references.
In particular, the excitation and emission maxima and the absolute fluorescence quantum yield (Φ) of representative compounds of formula (I) and conjugates of formula (II) are shown in Table II.

[2] = biological target: T1, human recombinant integrin αvβ3 (Homo sapiens, UniProt P05106+P06756); experiment: Receptor binding affinity ELISA (Vitronectin-coated plates); conditions: duplicate, read-out: Receptor affinity (IC50, nM ± St. Dev.)
T1 construct: purchased R&D Systems
Description: Briefly, 96-well ELISA plates were coated overnight at 4° C. with the extracellular matrix (ECM) protein Vitronectin in carbonate buffer (15 mM Na2CO3, 35 mM NaHCO3, pH 9.6). Each well was then washed with PBS-T-buffer (phosphate-buffered saline/Tween20, 137 mM NaCl, 2.7 mM KCl, 10 mM Na2HPO4, 2 mM KH2PO4, 0.01% Tween20, pH 7.4) and blocked for 1 h at RT with TS-B-buffer (Tris-saline/BSA buffer; 20 mM Tris-HCl, 150 mM NaCl, 1 mM CaCl2, 1 mM MgCl2, 1 mM MnCl2, pH 7.5, 1% BSA). In the meantime, a dilution series of the compound and internal standard was prepared in an extra plate. After washing the assay plate three times with PBS-T, 50 μL of the dilution series were transferred to each well. 50 μL of a solution of human recombinant integrin αvβ3 (R&D Systems, 1 μg/mL) in TS-B-buffer was transferred to the wells and incubated for 1 h. The plate was washed three times with PBS-T buffer, and then primary antibody anti-αvβ3 was added to the plate. After incubation and washing three times with PBS-T, the secondary anti-IgG peroxidase-labeled antibody was added to the plate and incubated for 1 h. After washing the plate three times with PBS-T, the plate was developed by quick addition of 3,3′,5,5′-tetrametylbenzidine (TMB) and incubated for 5 min in the dark. The reaction was stopped with 3 M H2SO4, and the absorbance was measured at 450 nm with a plate reader (Victor3, Perkin Elmer).
The IC50 of the representative Compounds 1, 2 and 4 was tested in duplicate, and the resulting inhibition curves were analyzed using GraphPad Prism version 4.0 for Windows (GraphPad Software). The inflection point defines the IC50 value.

[3] = tested on: human glioblastoma U87MG cells; experiment: Tumor uptake in animal model of human glioblastoma (subcutaneous), ex vivo optical imaging; conditions: ex vivo tumor-to-muscle, 24 h after i.v. administration, glioblastoma tumor bearing mice, n = 5/group
Description: Tumor uptake experiments were carried out in an animal model of human glioblastoma (subcutanous) overexpressing the integrin receptors, particularly αvβ3. Briefly, human glioblastoma U87MG cells (ATCC, HTB-14) were cultured in Eagle's Minimum Essential Medium (EMEM) supplemented with 10% Fetal Bovine Serum (FBS), 2 mM glutamine, 100 IU/mL penicillin, 100 μg/mL streptomycin. Male Balb/c nu/nu mice, 4-6 weeks of age (Charles River Laboratories), underwent subcutaneous implantation (right flank) of about 10 million cells suspended in 0.1 mL of EMEM. Mice were housed 4 per cage with food and water ad libitum. Animals were fed with VRF1 (P) sterile diet (Special Diets Services Ltd) up to the end of the acclimation period (5 days). Then, AIN-76a rodent diet irradiated (Research Diets), a special diet that reduces auto-fluorescence, was used up to the end of the experiments. Tumor growth was monitored by longitudinal assessments using a caliper up to the target size of 300-600 mm^3 (3-4 weeks after cell implantation). […] Regions of interest (ROIs) were drawn on the excised tumor and healthy muscle tissues to evaluate signal intensity (expressed as Average Radiant Efficiency). The ratio between the fluorescence signal in the tumor and in the muscle (background tissue) was then calculated to assess the contrast.

[4] = tested on: human pharyngeal carcinoma cells Detroit-562; experiment: Tumor uptake in animal model of human head and neck cancer (orthotopic), ex vivo optical imaging; conditions: ex vivo anterior vs posterior tongue, 24 h after i.v. 3 nmol/mouse, H&N tumor bearing mice, n = 5/group
Description: Tumor uptake experiments were performed in an animal model of human head and neck cancer (orthotopic), using Detroit-562 cells, overexpressing in particular integrin receptor αvβ6. Briefly, the human pharyngeal carcinoma cells Detroit-562 (ATCC, CCL-138) were cultured in Eagle's Minimum Essential Medium (EMEM) supplemented with 10% Fetal Bovine Serum (FBS), 2 mM glutamine, 100 IU/mL penicillin, 100 μg/mL streptomycin. Male Balb/c nu/nu mice, 4-6 weeks of age (Charles River Laboratories), underwent orthotopic implantation in the anterior portion of the tongue of about 2.5 million cells suspended in 0.03 mL di EMEM. Mice were housed 4 per cage with food and water ad libitum. Animals were fed with VRF1 (P) sterile diet (Special Diets Services Ltd) up to the end of the acclimation period (5 days). Then, AIN-76a rodent diet irradiated (Research Diets), a special diet that reduces auto-fluorescence, was used up to the end of the experiments. Tumor growth was monitored by longitudinal assessments using a caliper up to the target size of 10-20 mm^3 (7-10 days after cell implantation).
Imaging experiments were performed using the preclinical optical system IVIS Spectrum (Perkin Elmer). Animals were intravenously injected (lateral tail vein) with 3 nmol/mouse, at 24 hours post-administration were euthanized by anesthesia overdose, and the tongues were excised for ex vivo optical imaging. […]

[5] = tested on: human colorectal adenocarcinoma cells HT-29; experiment: Tumor uptake in animal model of human colorectal cancer (subcutaneous), ex vivo optical imaging; conditions: ex vivo tumor-to-muscle, 24 h after i.v. administration, colorectal cancer bearing mice, n = 5/group
Description: Tumor uptake experiments were performed in an animal model of human colorectal cancer (subcutaneous), using HT-29 cells, expressing low levels of integrin receptors. Briefly, the human colorectal adenocarcinoma cells HT-29 (ATCC, HTB-38) were cultured in McCoy's 5 A medium supplemented with 10% foetal bovine serum, 2 mM glutamine, 100 IU/mL penicillin and 100 μg/mL streptomycin. Male Athymic nude mice, 4-6 weeks of age (Envigo), underwent subcutaneous implantation (right flank) of about 5 million cells suspended in 0.1 mL of serum-free medium. Mice were housed 4 per cage with food and water ad libitum. […] Then, AIN-76a rodent diet irradiated (Research Diets), a special diet that reduces auto-fluorescence, was used up to the end of the experiments. Tumor growth was monitored by longitudinal assessments using a caliper up to the target size of 300-600 mm^3 (3-4 weeks after cell implantation). […]
In vivo imaging was performed under gas anesthesia (Sevofluorane 6-8% in oxygen). […] Regions of interest (ROIs) were drawn on the excised tumor and healthy reference tissue (muscle) to evaluate signal intensity (expressed as Average Radiant Efficiency). The ratio between the fluorescence signal in the tumor and in the muscle (background tissue) was then calculated to assess the tumor-to-background ratio (TBR).

[6] = biological target: T2, human serum albumin (HSA) (Homo sapiens, UniProt P02768); experiment: Binding affinity to human serum albumin (absorbance peak shift or ultrafiltration method)
T2 construct: purchased Sigma Aldrich A9511
Description: An analysis of the binding affinity of the compounds of the invention to human albumin was carried out and the results compared with ICG and […] as a reference. Binding affinity to human serum albumin (HSA; Sigma Aldrich, A9511) was measured using two methods, according to the level of binding affinity of the compounds. The first method, optimal for compounds which strongly interact with HSA, is based on the analysis of the absorbance spectrum peak shift after the incubation of the dye in solutions containing HSA. […] The measure was performed at the maximum absorbance wavelength of the shifted peak. The second method, optimal for compound with low affinity for HSA, is based on measuring the variation of the absorbance of solutions containing the dye and various concentrations of HSA after ultrafiltration. […] In the first method, ΔA/b corresponds to the absorbance measured for each sample, whereas in the second method ΔA/b is obtained subtracting the absorbance of the control sample (dye without HSA) to the absorbance of each other sample.

[7] = tested on: WM-266-4 human melanoma cells; experiment: Cell uptake by FACS in presence of human serum; assay type: cell-based; conditions: WM-266-4 cells; fluorescence intensity in absence of serum = 100%
Description: The human melanoma cell line WM-266-4 (ATCC, CRL-1676) was used as in vitro model to assess the cell uptake of representative integrin-binding Compounds 1, 2 and 4, based on the high expression of the integrin receptors, particularly αvβ3, on the membrane of these cells (Capasso et al., PlosOne 2014).
Adherent cells at about 70% confluence were incubated with the Compounds 1 or 3 (1 μM) for 2 h at 37° C. (5% CO2) in presence of Dulbecco's Modified Eagle's Medium (DMEM) supplemented with 10% FBS, 2 mM glutamine, 100 IU/mL penicillin and 100 μg/mL streptomycin. […] Fluorescence Activated Cell Sorting (FACS) was used to detect the fluorescence signal within the cells, as measure of cell uptake. Samples were excited with an Argon laser and the emission detected using a 670 nm longpass filter. Values of fluorescence intensity were obtained from the histogram statistic produced by the instrument software.
The residual internalization was calculated by considering the value of fluorescence intensity in absence of the competitor as 100%.
Furthermore, to assess the effect of biological fluids on the cell uptake, parallel experiments were performed incubating the cells with a compounds of the invention in presence of human serum from male AB plasma (Sigma Aldrich, H4522). The residual internalization was calculated by considering the value of fluorescence intensity in absence of the serum as 100%. […]

[8] = Seronorm (clinical chemistry control serum)

T1 sequence (P06756 31-992 limits assumed): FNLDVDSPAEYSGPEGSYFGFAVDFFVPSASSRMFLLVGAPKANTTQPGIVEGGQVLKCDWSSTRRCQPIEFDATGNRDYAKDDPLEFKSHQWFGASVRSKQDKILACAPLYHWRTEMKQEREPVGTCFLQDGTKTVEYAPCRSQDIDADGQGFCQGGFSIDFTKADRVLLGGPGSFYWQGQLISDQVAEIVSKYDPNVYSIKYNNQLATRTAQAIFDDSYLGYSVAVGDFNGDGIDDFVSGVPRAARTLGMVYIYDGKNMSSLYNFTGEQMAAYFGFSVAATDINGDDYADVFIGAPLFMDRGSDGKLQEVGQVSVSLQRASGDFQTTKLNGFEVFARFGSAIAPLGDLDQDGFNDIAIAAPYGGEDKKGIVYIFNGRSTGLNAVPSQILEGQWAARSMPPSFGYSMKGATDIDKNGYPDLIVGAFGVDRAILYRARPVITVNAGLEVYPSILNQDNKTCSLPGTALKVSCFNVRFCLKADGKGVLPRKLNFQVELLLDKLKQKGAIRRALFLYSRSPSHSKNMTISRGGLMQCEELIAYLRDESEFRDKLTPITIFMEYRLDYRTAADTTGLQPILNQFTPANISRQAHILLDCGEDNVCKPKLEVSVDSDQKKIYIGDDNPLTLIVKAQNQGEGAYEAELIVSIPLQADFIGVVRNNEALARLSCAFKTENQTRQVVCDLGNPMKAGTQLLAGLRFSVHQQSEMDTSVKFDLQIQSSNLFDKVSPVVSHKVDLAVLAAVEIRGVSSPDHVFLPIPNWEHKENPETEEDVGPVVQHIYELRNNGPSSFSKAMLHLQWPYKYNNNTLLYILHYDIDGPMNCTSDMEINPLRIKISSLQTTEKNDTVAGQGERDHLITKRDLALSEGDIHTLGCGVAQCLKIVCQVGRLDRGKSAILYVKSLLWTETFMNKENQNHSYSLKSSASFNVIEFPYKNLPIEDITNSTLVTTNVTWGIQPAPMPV
T1 sequence (P05106 27-718 limits assumed): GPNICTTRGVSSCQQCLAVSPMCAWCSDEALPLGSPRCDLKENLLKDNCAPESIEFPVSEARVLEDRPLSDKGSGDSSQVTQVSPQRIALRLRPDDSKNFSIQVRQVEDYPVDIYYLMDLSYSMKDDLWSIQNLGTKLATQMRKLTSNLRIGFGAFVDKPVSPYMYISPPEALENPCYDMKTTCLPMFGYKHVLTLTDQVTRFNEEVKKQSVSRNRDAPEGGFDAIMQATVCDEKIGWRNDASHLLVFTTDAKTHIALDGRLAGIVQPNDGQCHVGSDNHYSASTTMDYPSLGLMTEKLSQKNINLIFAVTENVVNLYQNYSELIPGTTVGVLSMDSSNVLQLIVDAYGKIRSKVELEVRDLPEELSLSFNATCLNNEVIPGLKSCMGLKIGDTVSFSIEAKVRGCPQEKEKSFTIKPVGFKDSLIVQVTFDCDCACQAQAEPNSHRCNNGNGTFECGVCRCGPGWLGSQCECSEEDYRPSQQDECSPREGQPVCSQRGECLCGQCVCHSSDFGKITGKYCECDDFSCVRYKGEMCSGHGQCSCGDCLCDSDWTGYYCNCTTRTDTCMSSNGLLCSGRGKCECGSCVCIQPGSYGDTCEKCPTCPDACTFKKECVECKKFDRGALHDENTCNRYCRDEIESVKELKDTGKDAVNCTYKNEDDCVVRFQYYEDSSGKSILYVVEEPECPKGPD
T2 sequence (P02768 25-609): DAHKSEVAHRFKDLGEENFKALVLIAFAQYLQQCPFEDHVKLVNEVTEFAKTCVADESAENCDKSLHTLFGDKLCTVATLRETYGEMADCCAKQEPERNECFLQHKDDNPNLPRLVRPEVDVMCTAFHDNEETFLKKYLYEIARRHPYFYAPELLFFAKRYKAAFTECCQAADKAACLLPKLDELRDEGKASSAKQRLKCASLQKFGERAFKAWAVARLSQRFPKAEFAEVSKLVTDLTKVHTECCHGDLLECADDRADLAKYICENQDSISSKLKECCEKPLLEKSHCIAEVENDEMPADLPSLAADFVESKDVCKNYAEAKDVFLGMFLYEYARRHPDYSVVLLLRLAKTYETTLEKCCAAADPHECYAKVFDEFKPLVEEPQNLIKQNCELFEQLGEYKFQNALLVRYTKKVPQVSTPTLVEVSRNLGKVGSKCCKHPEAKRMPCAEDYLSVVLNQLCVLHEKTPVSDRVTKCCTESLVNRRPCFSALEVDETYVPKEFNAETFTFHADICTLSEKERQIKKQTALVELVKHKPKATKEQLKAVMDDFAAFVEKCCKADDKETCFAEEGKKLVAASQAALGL

CC1(C)C(/C=C/C2=C(c3ccc(CCC(=O)NCCCCC4NC(=O)[C@@H](Cc5ccccc5)NC(=O)[C@H](CC(=O)O)NC(=O)CNC(=O)[C@H](CCCNC(=N)N)NC4=O)cc3)C(=C/C=C3/N(CCCCS(=O)(=O)O)c4ccc(C(=O)NCC(O)C(O)C(O)C(O)CO)cc4C3(C)C)/CCC2)=[N+](CCCCS(=O)(=O)[O-])c2ccc(C(=O)NCC(O)C(O)C(O)C(O)CO)cc21 (some centres unmarked) [Compound 1]
Max Em (emission maximum) ([1]; PBS pH 7.4): 788 nm
Max Ex (excitation maximum) ([1]; PBS pH 7.4): 771 nm
Φ (absolute fluorescence quantum yield) ([1]; PBS pH 7.4): 4.4%
Φ (absolute fluorescence quantum yield) [1, 8]: 10.9%
IC50 [2]: 2.73 ± 0.5 nM
Tumor-to-background ratio (mean ± St. Dev) [3]: 6.92 ± 0.64
Tumor-to-background ratio (mean ± St. Dev) [4]: 2.27 ± 0.50
Tumor-to-background ratio (mean ± St. Dev) [5]: 4.30 ± 1.50

CC1(C)C(/C=C/C2=C(Oc3ccc(S(=O)(=O)O)cc3)C(=C/C=C3/N(CCCCCC(=O)NCCCCC4NC(=O)[C@@H](Cc5ccccc5)NC(=O)[C@H](CC(=O)O)NC(=O)CNC(=O)[C@H](CCCNC(=N)N)NC4=O)c4ccc(C(=O)NCC(O)C(O)C(O)C(O)CO)cc4C3(C)C)/CCC2)=[N+](CCCCS(=O)(=O)[O-])c2ccc(C(=O)NCC(O)C(O)C(O)C(O)CO)cc21 (some centres unmarked) [Compound 2]
Max Em (emission maximum) ([1]; PBS pH 7.4): 805 nm
Max Ex (excitation maximum) ([1]; PBS pH 7.4): 783 nm
Φ (absolute fluorescence quantum yield) ([1]; PBS pH 7.4): 6.1%
Φ (absolute fluorescence quantum yield) [1, 8]: 7.5%
Kd [6]: 38200 nM
IC50 [2]: 1.64 ± 0.41 nM
Residual cell uptake in presence of human serum [7]: 90%
Tumor-to-background ratio (mean ± St. Dev) [4]: 2.26 ± 0.10
Tumor-to-background ratio (mean ± St. Dev) [5]: 4.20 ± 0.80
